{"source": "patent US20250205329A1", "assay_in_all_cases": "BLI (Gator), antibody on protein A probe, F mutant supernatant held 1 h at 60° C.", "key": {"[1]": {"target": "DS-CavI (positive control) RSV F protein"}, "[2]": {"target": "RSV F protein mutant YK001Ag222 (RSV A) (UniProt P12568)"}, "[3]": {"target": "RSV F protein mutant YK001Ag399 (RSV A) (RSV A) (UniProt P11209)"}, "[4]": {"target": "RSV F protein mutant YK001Ag400 (RSV A) (UniProt P12568)"}, "[5]": {"target": "RSV F protein mutant YK001Ag401 (RSV A) (RSV A) (UniProt P11209)"}, "[6]": {"target": "RSV F protein mutant YK001Ag402 (RSV A) (UniProt P12568)"}, "[7]": {"target": "RSV F protein mutant YK001Ag403 (RSV A) (UniProt P12568)"}, "[8]": {"target": "RSV F protein mutant YK001Ag404 (RSV A) (RSV A) (UniProt P11209)"}, "[9]": {"target": "RSV F protein mutant YK001Ag406 (RSV A) (RSV A) (UniProt P11209)"}, "[10]": {"target": "RSV F protein mutant YK001Ag407 (RSV A) (RSV A) (UniProt P11209)"}, "[11]": {"target": "RSV F protein mutant YK001Ag410 (AHV80758, RSV B) (RSV B)"}, "[12]": {"target": "RSV F protein mutant YK001Ag411 (AVQ93588.1, RSV B) (RSV B)"}, "[13]": {"target": "SC-TM (positive control) RSV F protein"}}}
{"substance": "monoclonal antibody AM14", "values": [{"measurement": "Activity of antibody AM14 after 1 h at 60° C. (%)", "setting": "[1]", "value": 9.9, "unit": "%"}, {"measurement": "Activity of antibody AM14 after 1 h at 60° C. (%)", "setting": "[2]", "value": 1.1, "unit": "%"}, {"measurement": "Activity of antibody AM14 after 1 h at 60° C. (%)", "setting": "[3]", "value": 99.8, "unit": "%"}, {"measurement": "Activity of antibody AM14 after 1 h at 60° C. (%)", "setting": "[4]", "value": 1.4, "unit": "%"}, {"measurement": "Activity of antibody AM14 after 1 h at 60° C. (%)", "setting": "[5]", "value": 2.2, "unit": "%"}, {"measurement": "Activity of antibody AM14 after 1 h at 60° C. (%)", "setting": "[6]", "value": 28.6, "unit": "%"}, {"measurement": "Activity of antibody AM14 after 1 h at 60° C. (%)", "setting": "[7]", "value": 81, "unit": "%"}, {"measurement": "Activity of antibody AM14 after 1 h at 60° C. (%)", "setting": "[8]", "value": 60.9, "unit": "%"}, {"measurement": "Activity of antibody AM14 after 1 h at 60° C. (%)", "setting": "[9]", "value": 45.5, "unit": "%"}, {"measurement": "Activity of antibody AM14 after 1 h at 60° C. (%)", "setting": "[10]", "value": 52.6, "unit": "%"}, {"measurement": "Activity of antibody AM14 after 1 h at 60° C. (%)", "setting": "[11]", "value": 67.7, "unit": "%"}, {"measurement": "Activity of antibody AM14 after 1 h at 60° C. (%)", "setting": "[12]", "value": 69.5, "unit": "%"}, {"measurement": "Activity of antibody AM14 after 1 h at 60° C. (%)", "setting": "[13]", "value": 1.3, "unit": "%"}]}
{"substance": "monoclonal antibody D25", "values": [{"measurement": "Activity of antibody D25 after 1 h at 60° C. (%)", "setting": "[1]", "value": 103, "unit": "%"}, {"measurement": "Activity of antibody D25 after 1 h at 60° C. (%)", "setting": "[2]", "value": 5.8, "unit": "%"}, {"measurement": "Activity of antibody D25 after 1 h at 60° C. (%)", "setting": "[3]", "value": 80.8, "unit": "%"}, {"measurement": "Activity of antibody D25 after 1 h at 60° C. (%)", "setting": "[4]", "value": 15.6, "unit": "%"}, {"measurement": "Activity of antibody D25 after 1 h at 60° C. (%)", "setting": "[5]", "value": 20.8, "unit": "%"}, {"measurement": "Activity of antibody D25 after 1 h at 60° C. (%)", "setting": "[6]", "value": 84, "unit": "%"}, {"measurement": "Activity of antibody D25 after 1 h at 60° C. (%)", "setting": "[7]", "value": 89.7, "unit": "%"}, {"measurement": "Activity of antibody D25 after 1 h at 60° C. (%)", "setting": "[8]", "value": 75.4, "unit": "%"}, {"measurement": "Activity of antibody D25 after 1 h at 60° C. (%)", "setting": "[9]", "value": 60.4, "unit": "%"}, {"measurement": "Activity of antibody D25 after 1 h at 60° C. (%)", "setting": "[10]", "value": 77.2, "unit": "%"}, {"measurement": "Activity of antibody D25 after 1 h at 60° C. (%)", "setting": "[11]", "value": 88.7, "unit": "%"}, {"measurement": "Activity of antibody D25 after 1 h at 60° C. (%)", "setting": "[12]", "value": 91.4, "unit": "%"}, {"measurement": "Activity of antibody D25 after 1 h at 60° C. (%)", "setting": "[13]", "value": 21, "unit": "%"}]}
